The results in this text go back to the supplement of paper PMC10567573.

B1: KLHL13 (parent)
chain: GVSKVGLRKIIDFIYTAKLSLNMD
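Further: lentivirally expressed fusions sorted by FACS into six bins by GFP to DsRed ratio, PSI derived from sequencing read proportions per bin multiplied by bin number.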

The data set covers variants of B1. Put plainly: protein stability index of a GFP-peptide fusion (GPS, HEK-293T) (PSI 1-6); higher = more stable. Conditions: c terminus: a fixed tail appended.
Turning to GVSKVGIRKIIDFIYTAKLSLNMD [L7I], the protein stability index worked out at 3.25.

As to GVSKVGGRKIIDFIYTAKLSLNMD [L7G], the protein stability index is 3.85.

GVSKVGKRKIIDFIYTAKLSLNMD [L7K]: the protein stability index came to 1.86.

As for GVSKVGCRKIIDFIYTAKLSLNMD [L7C], the protein stability index turned out to be 3.38.

For the variant GVSKVGARKIIDFIYTAKLSLNMD [L7A], the protein stability index stood at 2.27.

For GVSKVGTRKIIDFIYTAKLSLNMD [L7T], the protein stability index worked out at 2.6.

As to GVSKVGSRKIIDFIYTAKLSLNMD [L7S], the protein stability index came out at 2.94.

For GVSKVGWRKIIDFIYTAKLSLNMD [L7W], the protein stability index stood at 2.05.

Take GVSKVGQRKIIDFIYTAKLSLNMD [L7Q]: the protein stability index turned out to be 2.97.

Regarding GVSKVGRRKIIDFIYTAKLSLNMD [L7R], the protein stability index was found to be 2.5.

In the case of GVSKVGHRKIIDFIYTAKLSLNMD [L7H], the protein stability index was determined as 3.17.

As to GVSKVGFRKIIDFIYTAKLSLNMD [L7F], the protein stability index turned out to be 2.93.

In the case of WVSKVGLRKIIDFIYTAKLSLNMD [G1W], the protein stability index stood at 3.32.

Take KVSKVGLRKIIDFIYTAKLSLNMD [G1K]: the protein stability index turned out to be 2.08.

As to HVSKVGLRKIIDFIYTAKLSLNMD [G1H], the protein stability index turned out to be 2.49.

Consider AVSKVGLRKIIDFIYTAKLSLNMD [G1A], for which the protein stability index worked out at 3.93.

As for LVSKVGLRKIIDFIYTAKLSLNMD [G1L], the protein stability index came to 2.96.

Consider TVSKVGLRKIIDFIYTAKLSLNMD [G1T], for which the protein stability index came to 3.89.

For the variant QVSKVGLRKIIDFIYTAKLSLNMD [G1Q], the protein stability index is 2.05.

As to NVSKVGLRKIIDFIYTAKLSLNMD [G1N], the protein stability index was found to be 2.53.

On to SVSKVGLRKIIDFIYTAKLSLNMD [G1S], for which the protein stability index is 3.05.

In the case of PVSKVGLRKIIDFIYTAKLSLNMD [G1P], the protein stability index is 1.75.

For GVSKVGLRKDIDFIYTAKLSLNMD [I10D], the protein stability index worked out at 1.55.

Turning to GVSKVGLRKKIDFIYTAKLSLNMD [I10K], the protein stability index came to 2.98.

As for GVSKVGLRKTIDFIYTAKLSLNMD [I10T], the protein stability index turned out to be 2.02.

On to GVSKVGLRKGIDFIYTAKLSLNMD [I10G], for which the protein stability index came to 2.31.

As for GVSKVGLRKEIDFIYTAKLSLNMD [I10E], the protein stability index worked out at 1.48.

For GVSKVGLRKWIDFIYTAKLSLNMD [I10W], the protein stability index is 4.2.

As to GVSKVGLRKCIDFIYTAKLSLNMD [I10C], the protein stability index was determined as 1.53.

Take GVSKVGLRKSIDFIYTAKLSLNMD [I10S]: the protein stability index was 4.37.

GVSKVGLRKYIDFIYTAKLSLNMD [I10Y]: the protein stability index came to 3.8.

For GVSKVGLRKHIDFIYTAKLSLNMD [I10H], the protein stability index is 1.14.

On to GVSKVGLRKQIDFIYTAKLSLNMD [I10Q], for which the protein stability index is 2.35.

GVSKVGLRKAIDFIYTAKLSLNMD [I10A]: the protein stability index was 2.04.

With GVSKVGLRKRIDFIYTAKLSLNMD [I10R], the protein stability index is 2.74.

On to GVSKVGLRKNIDFIYTAKLSLNMD [I10N], for which the protein stability index was found to be 1.63.

Turning to GVSKVGLRKPIDFIYTAKLSLNMD [I10P], the protein stability index turned out to be 1.81.

Take GVHKVGLRKIIDFIYTAKLSLNMD [S3H]: the protein stability index stood at 3.22.

As for GVDKVGLRKIIDFIYTAKLSLNMD [S3D], the protein stability index worked out at 2.68.

Regarding GVKKVGLRKIIDFIYTAKLSLNMD [S3K], the protein stability index came out at 2.31.

On to GVVKVGLRKIIDFIYTAKLSLNMD [S3V], for which the protein stability index came to 4.55.

Consider GVWKVGLRKIIDFIYTAKLSLNMD [S3W], for which the protein stability index is 2.47.

In the case of GVTKVGLRKIIDFIYTAKLSLNMD [S3T], the protein stability index was 2.37.

Take GVQKVGLRKIIDFIYTAKLSLNMD [S3Q]: the protein stability index stood at 2.92.

Take GVYKVGLRKIIDFIYTAKLSLNMD [S3Y]: the protein stability index was 3.66.

Turning to GVRKVGLRKIIDFIYTAKLSLNMD [S3R], the protein stability index is 2.45.

GVMKVGLRKIIDFIYTAKLSLNMD [S3M]: the protein stability index worked out at 2.17.

Turning to GVGKVGLRKIIDFIYTAKLSLNMD [S3G], the protein stability index was found to be 1.62.

In the case of GVSKVGLRLIIDFIYTAKLSLNMD [K9L], the protein stability index worked out at 2.37.

GVSKVGLRCIIDFIYTAKLSLNMD [K9C]: the protein stability index is 3.38.

As for GVSKVGLRGIIDFIYTAKLSLNMD [K9G], the protein stability index is 1.91.

With GVSKVGLRDIIDFIYTAKLSLNMD [K9D], the protein stability index was determined as 3.8.

With GVSKVGLRNIIDFIYTAKLSLNMD [K9N], the protein stability index worked out at 3.3.

GVSKVGLRVIIDFIYTAKLSLNMD [K9V]: the protein stability index was found to be 4.21.

As for GVSKVGLRYIIDFIYTAKLSLNMD [K9Y], the protein stability index turned out to be 2.81.

For the variant GVSKVGLRIIIDFIYTAKLSLNMD [K9I], the protein stability index stood at 3.12.

Take GVSKVGLRMIIDFIYTAKLSLNMD [K9M]: the protein stability index was 2.42.

For the variant GVSKVGLREIIDFIYTAKLSLNMD [K9E], the protein stability index came out at 1.78.

Regarding GVSKVGLRSIIDFIYTAKLSLNMD [K9S], the protein stability index is 2.4.

With GVSKVGLRAIIDFIYTAKLSLNMD [K9A], the protein stability index was determined as 4.24.

Consider GVSKVGLRQIIDFIYTAKLSLNMD [K9Q], for which the protein stability index was found to be 2.03.

Consider GVSKVGLRHIIDFIYTAKLSLNMD [K9H], for which the protein stability index was found to be 2.64.

Turning to GVSKVHLRKIIDFIYTAKLSLNMD [G6H], the protein stability index was 3.04.

For the variant GVSKVNLRKIIDFIYTAKLSLNMD [G6N], the protein stability index turned out to be 2.05.

Regarding GVSKVPLRKIIDFIYTAKLSLNMD [G6P], the protein stability index was 2.12.

Take GVSKVSLRKIIDFIYTAKLSLNMD [G6S]: the protein stability index was found to be 2.08.

As for GVSKVRLRKIIDFIYTAKLSLNMD [G6R], the protein stability index worked out at 2.15.

In the case of GVSKVQLRKIIDFIYTAKLSLNMD [G6Q], the protein stability index was 2.4.

Regarding GVSKVKLRKIIDFIYTAKLSLNMD [G6K], the protein stability index was determined as 2.84.

Consider GVSKVWLRKIIDFIYTAKLSLNMD [G6W], for which the protein stability index came out at 2.32.

Take GVSKVCLRKIIDFIYTAKLSLNMD [G6C]: the protein stability index stood at 1.49.

Regarding GVSKVLLRKIIDFIYTAKLSLNMD [G6L], the protein stability index came out at 4.85.

GVSKVELRKIIDFIYTAKLSLNMD [G6E]: the protein stability index is 1.47.

For the variant GVSKVYLRKIIDFIYTAKLSLNMD [G6Y], the protein stability index came out at 3.06.

For the variant GVSKVVLRKIIDFIYTAKLSLNMD [G6V], the protein stability index amounted to 3.71.

In the case of GYSKVGLRKIIDFIYTAKLSLNMD [V2Y], the protein stability index turned out to be 2.11.

As for GCSKVGLRKIIDFIYTAKLSLNMD [V2C], the protein stability index amounted to 1.52.

With GNSKVGLRKIIDFIYTAKLSLNMD [V2N], the protein stability index worked out at 2.03.

On to GPSKVGLRKIIDFIYTAKLSLNMD [V2P], for which the protein stability index stood at 1.83.

For the variant GSSKVGLRKIIDFIYTAKLSLNMD [V2S], the protein stability index was 1.79.

Consider GGSKVGLRKIIDFIYTAKLSLNMD [V2G], for which the protein stability index stood at 3.41.

For GDSKVGLRKIIDFIYTAKLSLNMD [V2D], the protein stability index is 3.51.

Regarding GTSKVGLRKIIDFIYTAKLSLNMD [V2T], the protein stability index is 4.01.

In the case of GKSKVGLRKIIDFIYTAKLSLNMD [V2K], the protein stability index was found to be 2.38.

With GHSKVGLRKIIDFIYTAKLSLNMD [V2H], the protein stability index is 1.7.

As to GFSKVGLRKIIDFIYTAKLSLNMD [V2F], the protein stability index came out at 1.65.

On to GVSKFGLRKIIDFIYTAKLSLNMD [V5F], for which the protein stability index came out at 4.57.

For GVSKAGLRKIIDFIYTAKLSLNMD [V5A], the protein stability index turned out to be 2.64.

For the variant GVSKRGLRKIIDFIYTAKLSLNMD [V5R], the protein stability index was determined as 3.04.

For GVSKIGLRKIIDFIYTAKLSLNMD [V5I], the protein stability index stood at 1.5.

GVSKEGLRKIIDFIYTAKLSLNMD [V5E]: the protein stability index stood at 1.83.

On to GVSKLGLRKIIDFIYTAKLSLNMD [V5L], for which the protein stability index was 2.12.

As to GVSKYGLRKIIDFIYTAKLSLNMD [V5Y], the protein stability index was found to be 2.06.

For the variant GVSKWGLRKIIDFIYTAKLSLNMD [V5W], the protein stability index came out at 3.14.
